The values that follow come from patent publication US7378388B2, “Method of utilizing neurotrophins to manipulate reproductive capacity” (University of Medicine and Dentistry of New Jersey, priority 2001, dated 2008).

One test deals with cumulus cells. As to the kind of experiment: BDNF production and secretion by cultured cumulus cells (BDNF ELISA of culture medium). In kind it is cell-based, human. The conditions noted are these: 10 μM forskolin, cumulus cells cultured 24 h, P=0.016.
Test [1] deals with mouse oocytes. Briefly: Effect of NT-4/5 and NT-3 on in vitro maturation of mouse oocytes. In kind it is cell-based. As to the method: Eighteen 4-5 week old female C57BL/6 mice (Taconic Labs, German Town, N.Y.) were given a single intraperitoneal injection of 7.5 IU PMSG (Sigma, St. Louis, Mo.). Five hundred thirty-six (536) immature oocytes were harvested 48 hours after gonadotropin injection. Cumulus cells were removed mechanically (27 gauge insulin needles) at room temperature. Immature oocytes were equally divided into control (n=218) and experimental (n=318) groups and cultured in 5% CO2 in air, 37° C. in Human Tubal Fluid (HTF, Conception Technologies, San Diego, Calif.) for 24 and 48 hours with 1 ng/ml (n=59), 10 ng/ml (n=98) and 100 ng/mI (n=11) of 10 NT-4/5 (Peprotech, Inc. Rocky Hill, N.J.) or 10 ng/ml (n=60) and 100 ng/ml (n=60) of NT-3 (Peprotech, Inc. Rocky Hill, N.J.) to examine the percentage of germinal vesicle breakdown. The percentage of polar body extrusion was also examined. Control oocytes (n=218) were cultured in HTF under the same conditions without addition of NT-4/5 (n=158) or NT-3 (n=60).

Test [2] deals with mouse oocytes. As to the kind of experiment: Effect of BDNF upon in vitro maturation of mouse oocytes. The conditions noted are these: 100 ng/ml BDNF. In kind it is cell-based. Here is the method: Six (6) 4-5 week old female C57BL/6 mice (Taconic Labs, German Town, N.Y.) were given a single intraperitoneal injection of 7.5 IV PMSG (Sigma, St. Louis, Mo.). One hundred sixty (160) immature oocytes were harvested 48 hours after gonadotropin injection. Cumulus cells were removed mechanically (27 gauge insulin needles) at room temperature. Oocytes were equally divided into control and experimental groups. Immature oocytes (n-80) were incubated (5% CO2 in air, 37° C.) in Human Tubal Fluid (HTF, Conception Technologies, San Diego, Calif.) with 100 ng/ml BDNF (Peprotech, Inc. Rocky Hill, N.J.) Control oocytes (n=80) were cultured in HTF under the same conditions without addition of BDNF. […] (See FIG. 3).

Setting [3] is: 24 and 48 hours in culture, compared to controls.

Text for cumulus cells: Cumulus cells, which are a mass of epithelial cells surrounding the ovum in the ovarian follicle, were removed from oocytes in preparation for IVF and were dissociated in hyaluronidase (100 IU/ml, Sigma Chemical Company, St. Louis, Mo.) then washed twice with HBSS. The resulting preparation of cumulus cells was of ninety-nine percent (99%) pure.
For the purpose of examining the regulation of BDNF expression by cAMP, cumulus cells were combined between two subjects for each experiment. […] The culture media was collected after 24 hours of culture for assay of BDNF.
BDNF levels were determined using commercially available BDNF E max® immumoassay system (Promega, Madison, Wis.). The ELISA's were performed according to the manufacture's protocol. Follicular fluid, granulosa cell culture media, oocyte or embryo culture media was added to a 96-well immunoplate pre-coated with human BDNF specific monoclonal antibody. The plate was incubated at room temperature for 2 hours with shaking. Anti-BDNF monoclonal antibody was used as the capture Ab and Anti-BDNF pAb was used as reporter Ab. After washing, the amount of specifically bound pAb was detected using a species-specific anti-IgY antibody conjugated to horseradish peroxidase (HRP) as a tertiary reactant. […] Absorbency was measured at 450 nm using a microplate reader (Model Vmax kinetic microplate reader; Molecular Devices). […]

`C=C[C@@]1(C)CC(=O)[C@]2(O)[C@@]3(C)[C@@H](O)CCC(C)(C)[C@@H]3[C@H](O)[C@H](OC(C)=O)[C@@]2(C)O1` [Forskolin]: in the test on cumulus cells, the “increase of BDNF production” value turned out to be 11 fold.

B1: neurotrophin-3 (protein, UniProt P20783 139-257, looked up)
Neurotrophin-3: YAEHKSHRGEYSVCDSESLWVTDKSSAIDIRGHQVTVLGEIKTGNSPVKQYFYETRCKEARPVKNGCRGIDDKHWNSQCKTSQTYVRALTSENNKLVGWRWIRIDTSCVCALSRKIGRT
notes: neurotrophin, Trk C ligand (Peprotech)
For the molecule B1, in the test on mouse oocytes [1] (setting [3]), the germinal vesicle breakdown result was “did not alter” and the “mouse oocyte polar body extrusion” value is “did not alter”.

B2: neurotrophin-4/5 (protein, UniProt P34130 81-210, looked up)
Neurotrophin-4: GVSETAPASRRGELAVCDAVSGWVTDRRTAVDLRGREVEVLGEVPAAGGSPLRQYFFETRCKADNAEEGGPGAGGGGCRGVDRRHWVSECKAKQSYVRALTADAQGRVGWRWIRIDTACVCTLLSRTGRA
notes: neurotrophin, Trk B ligand (Peprotech)
On to B2, for which the “mouse oocyte polar body extrusion” value in the test on mouse oocytes [1] (1.0 ng/ml, 48 hours, p<0.05) was “significantly influenced”; in the test with mouse oocytes [1] (10 ng/ml, 24 hours, <0.01) it was “significantly influenced”; with mouse oocytes [1] (10 ng/ml, 48 hours, p<0.01), “significantly influenced”; with mouse oocytes [1] (setting [3]), “significantly promoted”. For the same molecule, the germinal vesicle breakdown result in the test with mouse oocytes [1] (setting [3]) is “did not influence”.

B3: brain-derived neurotrophic factor (protein, UniProt P23560 19-247, looked up)
Neurotrophic factor BDNF …: APMKEANIRGQGGLAYPGVRTHGTLESVNGPKAGSRGLTSLADTFEHVIEELLDEDQKVRPNEENNKDADLYTSRVMLSSQVPLEPPLLFLLEEYKNYLDAANMSMRVRRHSDPARRGELSVCDSISEWVTAADKKTAVDMSGGTVTVLEKVPVSKGQLKQYFYETKCNPMGYTKEGCRGIDKRHWNSQCRTTQSYVRALTMDSKKRIGWRFIRIDTSCVCTLTIKRGR
notes: neurotrophin, soluble polypeptide growth factor, Trk B ligand (Peprotech)
Take B3: the “1st polar body extrusion” value came out at 18.8% with mouse oocytes [2] (20 hours, control 6.3%, p=0.017); 20% with mouse oocytes [2] (24 hours, control 6.3%, p=0.01); 21.3% with mouse oocytes [2] (48 hours, control 7.5%, p=0.013).
